Test results as given in US20230235027A1 (US Dept. of Health and Human Services, published 2023).
“And” between values parts separate entries of the source, which are not always exact repeats. Identical values can stand only once. Like-named read-outs stand apart in the source and are kept apart here.

Key:
[1] = biological target: T1, Biotinylated SARS-CoV-2 S protein RBD with a C-terminal AviTag (SARS-CoV-2, UniProt P0DTC2 319-541); experiment: biolayer interferometry (FIG. 7C)
[2] = biological target: T1, Biotinylated SARS-CoV-2 S protein RBD …
[3] = biological target: T2, SARS-CoV-2 spike protein receptor binding domain (RBD), recombinant (SARS-CoV-2, UniProt P0DTC2 319-541); experiment: ELISA: coated SARS-CoV-2 RBD, NIH-CoVnb-112 titrated, absorbance 450 nm
[4] = biological target: T2, SARS-CoV-2 spike protein receptor …; experiment: direct binding to RBD wild type (FIG. 7B); format not described further
[5] = biological target: T2, SARS-CoV-2 spike protein receptor …
[6] = biological target: T3, SARS-CoV-1 spike protein RBD (SARS-CoV-1, UniProt P59594 306-527); experiment: ELISA: coated SARS-CoV-1 RBD, NIH-CoVnb-112 titrated, absorbance 450 nm
T3 construct: domain: RBD

[7] = biological target: T2, SARS-CoV-2 spike protein receptor …; experiment: competition ELISA, RBD coated, competitor biotinylated ACE2
[8] = biological target: T2, SARS-CoV-2 spike protein receptor …; remark: listed apart in the source
[9] = biological target: T1, Biotinylated SARS-CoV-2 S protein RBD …; remark: listed apart in the source
[10] = biological target: T2, SARS-CoV-2 spike protein receptor …; experiment: kinetic measurement, method not stated; table row prototype RBD

B1: VHH72 (VHH)
VHH: QVQLQESGGGLVQAGGSLRLSCAASGRTFSEYAMGWFRQAPGKEREFVATISWSGGSTYYTDSVKGRFTISRDNAKNTVYLQMNSLKPDDTAVYYCAAAGLGTVVSEWDYDYDYWGQGTQVTVSS
[1]
  binding result: binds

B2: NIH-CoVnb-108 (VHH, not shown: large carriers)
VHH: DVQLQESGGGLVQPGGSLRLSCAASGFTLDYYAIGWFRQAPGKEREGVSCISNSGGSTYYADSVKGRFTTSRDNAKNTVYLQMNSLKPEDTAVYYCAAVPSTYYSGSYYYTCHPGGMDYWGKGTQVTVSS
[2]
  Kd: 26.6 nM
  koff: 0.00109 s⁻¹
  kon: 40900 M⁻¹ s⁻¹

B3: NIH-CoVnb-109 (VHH, not shown: large carriers)
VHH: DVQLQESGGGLVQSGGSLRLSCAASGFTLDYYAIGWFRQAPGKEREGVSCITNSDGSTYYADSVKGRFTTSRDNAKNTVYLQMNSLKPEDTAVYYCASFPSTYYSGSYYYTCHPGGMDYWGKGTQVTVSS
[2]
  Kd: 58.5 nM
  koff: 0.00188 s⁻¹
  kon: 32100 M⁻¹ s⁻¹

B4: NIH-CoVnb-112 (VHH)
VHH: DVQLQESGGGLVQPGGSLRLSCAASGLTLDYYAIGWFRQAPGKEREGVSCISSSDGSTYYADSVKGRFTTSRDNAKNTVYLQMNSLKPEDTAVYYCAAVPSTYYSGTYYYTCHPGGMDYWGKGTQVTVSS
[3]
  EC50 (read off the curve): ~0.01 µg/mL
[4]
  EC50: ~0.01 µg/mL
[5]
  koff: 0.000295 s⁻¹
  kon: 141000 M⁻¹ s⁻¹
[6]
  binding result: no binding (tested: about 5 µg/mL)
[7]
  EC50: 0.02 µg/mL and 1.11 nM
[8]
  Kd: 2.1 nM
[9]
  Kd: 4.9 nM
  koff: 0.000654 s⁻¹
  kon: 130000 M⁻¹ s⁻¹
[10]
  koff: 0.000236 s⁻¹
  kon: 223000 M⁻¹ s⁻¹

B5: NIH-CoVnb-113 (VHH)
VHH: DVQLQESGGGLVQPGGSLRLSCAASGLTLDYYAIGWFRQAPGKEREGVSCISSSDGSTYYADSVKGRFTTSRDNAKNTVYLQMNSLKPEDTAVYYCAAVPSTYYSGTYYYTCHPGGMDYWGKGTLVTVSS
[2]
  Kd: 8.19 nM
  koff: 0.000804 s⁻¹
  kon: 98200 M⁻¹ s⁻¹

B6: NIH-CoVnb-103 (VHH, not shown: large carriers)
VHH: DVQLQESGGGLVQPGGSLRLSCAASGLTLDYYTIGWFRQAPGKEREGVSCISSSDDSTYYADSVKGRFTISRDNAKNTVYLQMNSLKPEDTAVYYCATAPGTYYKGSYYPMCHYYGMDYWGKGTQVTVSS
[2]
  Kd: 9.43 nM
  koff: 0.00286 s⁻¹
  kon: 303000 M⁻¹ s⁻¹
